This is an account of results in PMC8699845.

Experiment [1] concerns the target Recombinant human Wnt Inhibitory Factor 1 (human) (UniProt Q9Y5W5). The experiment is described as follows: SPR; BIACORE X; WIF1 or WIF domain amine-coupled to CM5 chip, rhShh injected at 20 µL/min; 20 mM Tris, 150 mM NaCl, 5 mM EDTA, 0.005% Tween 20, 100 µM CHAPS, pH 7.4; 1:1 Langmuir fit.
Experiment [2] addresses WIF domain of human WIF1 protein (human) (UniProt Q9Y5W5). The description is as above.
Experiment [3] concerns the target dually lipidated recombinant human sonic hedgehog (human).

Sequence of UniProt Q9Y5W5 (Q9Y5W5 29-379): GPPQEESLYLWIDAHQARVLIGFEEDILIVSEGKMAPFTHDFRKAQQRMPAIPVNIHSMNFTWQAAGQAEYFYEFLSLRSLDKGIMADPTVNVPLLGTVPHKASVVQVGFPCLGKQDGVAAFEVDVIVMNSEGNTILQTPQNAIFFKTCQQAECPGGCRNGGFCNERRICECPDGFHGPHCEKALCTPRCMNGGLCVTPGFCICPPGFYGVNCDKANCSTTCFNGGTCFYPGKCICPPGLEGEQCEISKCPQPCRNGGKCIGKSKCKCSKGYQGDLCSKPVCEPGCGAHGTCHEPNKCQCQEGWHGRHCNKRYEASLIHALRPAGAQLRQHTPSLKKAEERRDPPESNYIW

As usually defined, the Kd is the free concentration of one partner at which half of the binding sites on the other are occupied at equilibrium, for simple one-to-one binding. The term koff denotes the first-order rate constant of dissociation. As a reminder, the kon is a measure of how fast the partners come together. For the molecule “dually lipidated recombinant human sonic hedgehog (ligand)”, in experiment [1], the dissociation constant Kd worked out at 2.06 nM, the off-rate (koff) amounted to 0.000141 s⁻¹ and the kon came out at 68500 M⁻¹ s⁻¹. In experiment [2], this molecule had a dissociation constant (Kd) of 1.18 nM, a koff of 5.03e-05 s⁻¹ and a kon of 42600 M⁻¹ s⁻¹.

B1: WIF domain of human WIF1 protein (domain or fragment)
chain: LWIDAHQARVLIGFEEDILIVSEGKMAPFTHDFRKAQQRMPAIPVNIHSMNFTWQAAGQAEYFYEFLSLRSLDKGIMADPTVNVPLLGTVPHKASVVQVGFPCLGKQDGVAAFEVDVIVMNSEGNTILQTPQNAIFFKTC
In the case of B1, in experiment [3], the Gli luciferase reporter in Gli Reporter-NIH3T3 cells; inhibition of the signaling activity of 0.2 nM rhShh preincubated with 0-50 nM WIF domain; EC50 was 2.75 nM.
